According to the Human Domainome abundance scans (Beltran et al. 2025):

B1: DnaJ homolog subfamily C member 5, residues 16 to 77; numbered along this chain, Q9H3Z4 (parent)
chain: LYHVLGLDKNATSDDIKKSYRKLALKYHPDKNPDNPEAADKFKEINNAHAILTDATKRNIYD

Variants of: B1
Experiment: abundance fitness (aPCA) (normalised: wild type 0, dead -1); higher = more abundant; growth selection in yeast, the domain comes from the species named
Settings: Homo sapiens

Abundance fitness, by site and new letter:
R58: C -0.442 | P -0.119 | G -0.21 | A -0.044 | V -0.363 | N -0.114 | L -0.43 | I -0.503 | F -0.617 | Y -0.575 | M -0.471 | D -0.348 | E 0.109 | Q -0.161 | H -0.275 | S -0.114 | W -0.636
D54: V -0.613 | M -0.634 | Q -0.666 | K -0.056 | W -0.907 | G -0.304 | T -0.512 | L -0.632 | N 0.044 | R -0.382 | F -1.01 | C -0.499 | Y -1.01 | E -0.278 | A -0.214
A39: V -0.01 | E -0.14 | Q -0.227 | Y 0.082 | R -0.021 | P -0.301 | I 0.064 | L 0.014 | M -0.126 | K 0.095 | C 0.01 | G -0.032 | T -0.427 | N 0.003 | D 0.033 | F -0.56 | S -0.176
A55: E -0.061 | R -0.156 | P -0.036 | V -0.14 | Q 0.028 | M -0.258 | I -0.406 | C -0.37 | Y -0.423 | S -0.135 | L -0.26 | W -0.413 | F -0.334 | K -0.002 | D -0.514 | H -0.287 | N -0.117 | G -0.151
E44: L -0.504 | V -0.264 | P -0.626 | A -0.135 | R -0.435 | Q -0.301 | Y -0.742 | N -0.196 | C -0.524 | F -0.744 | T -0.518 | M -0.097 | W -0.731 | S -0.3 | I -0.73 | K -0.376 | D -0.154 | G -0.527
F42: D -0.119 | Y -0.017 | V -0.197 | R -0.17 | G -0.278 | E -0.192 | Q -0.233 | A -0.28 | P -0.41 | M 0.223 | W -0.05 | H -0.421 | C -0.243 | K -0.188 | L 0.202 | I -0.135 | N -0.237 | S -0.219
D40: W 0.046 | P -0.258 | A 0.137 | C -0.012 | H 0.156 | T 0.054 | M 0.255 | L 0.212 | Y -0.05 | Q -0.03 | K 0.385 | E -0.171 | I 0.224 | F 0.029 | R 0.271 | V 0.194 | N -0.271
H49: M -0.002 | D -0.4 | P -0.423 | I -0.639 | G -0.052 | L -0.291 | S -0.279 | C -0.405 | N -0.062 | Y -0.251 | T -0.26 | Q -0.161 | V -0.091 | W -0.153 | K -0.032 | R 0.029 | A 0.009 | E -0.362 | F 0.149
K57: M -0.43 | W -0.99 | A -0.079 | I -0.511 | D -0.079 | N -0.575 | L -0.399 | R -0.059 | P -0.593 | T -0.415 | G -0.373 | E -0.023 | C -0.672 | F -1.01 | S -0.349 | Q -0.1 | V -0.656
I45: M -0.418 | D -0.311 | Y -0.366 | V 0.007 | W -0.841 | S -0.47 | R -0.623 | A -0.181 | T -0.216 | C -0.44 | N -0.381 | K -0.263 | Q -0.45 | E -0.203 | L -0.026 | F -0.747 | P -0.425 | H -0.792 | G -0.253
N47: R -0.142 | S -0.259
T53: N 0.101 | Q -0.186 | D -0.093 | K -0.011 | R -0.127 | A -0.118 | W -0.579 | M -0.157 | S -0.116 | E -0.277 | C -0.126 | P -0.678 | F -0.491 | I -0.286 | G 0.07 | L -0.032
T56: M -0.334 | P -0.516 | D -0.095 | Y -0.424 | G -0.09 | Q -0.417 | I -0.425 | C -0.069 | W -0.475 | R -0.246 | V -0.396 | F -0.499 | A -0.233 | K -0.101 | E 0.097 | S -0.15 | H -0.264 | L -0.421
I51: C -0.142 | Q 0.036 | L -0.149 | S -0.262 | F -0.326 | D 0.123 | E -0.301 | G -0.257 | M -0.131 | P -0.166 | A -0.146 | W -0.712 | V 0.106 | N -0.304 | T -0.08 | R -0.318 | Y -0.353
K41: T -0.197 | F -0.447 | D -0.493 | P -1.1 | N -0.434 | W -0.4 | S -0.223 | V -0.278 | C -0.598 | R -0.119 | E -0.311 | Y -0.254 | G -0.433 | Q -0.333 | A -0.222 | I -0.211
K43: G -0.116 | Y 0.364 | N -0.23 | A 0.299 | W -0.276 | R -0.263 | M 0.382 | Q 0.362 | E -0.34 | T 0.051 | S -0.043 | D 0.015 | H 0.519 | F 0.349 | P -1.02
N59: C 0.032 | A 0.197
A50: R -0.009 | C -0.688 | V -0.19 | H -0.237 | F -0.61 | I -0.334 | S 0.059 | G -0.198 | Q -0.294 | E -0.562 | M -0.087 | Y -0.604 | L -0.386 | W -0.748 | P -0.773 | K -0.091 | T -0.072
A38: T -0.292 | Y -0.132 | S -0.088 | W -0.305
N46: E 0.093 | I -0.178 | G -0.082 | M -0.113 | H -0.081 | D -0.578 | R -0.017 | T 0.256 | Y -0.312 | A 0.272 | V 0.182 | W -0.778 | C 0.174 | K -0.058 | Q -0.035 | F -0.065 | L -0.169 | P -0.653
L52: W -0.454 | Q -0.572 | V -0.524 | C -0.963 | G -0.555 | P -0.292 | M -0.395 | N -1.02 | T -0.446 | F -0.295 | H -0.767 | A -0.303 | S -0.493 | I -0.592 | K -0.419 | E -0.293 | D -0.381 | R -0.479
A48: Y -0.748 | H -0.477 | T -0.777 | G -0.455 | N -0.903 | F -1.72 | E -0.387 | P -0.384 | I -0.769 | W -1.58 | S -0.277 | Q -0.82 | V -0.777 | D -0.16 | C -0.85 | M -1.06
